In the Immune Epitope Database (IEDB) one finds Kd and IC50 data, which are given here for 3 sequences.

One experiment deals with HLA-A*02:50. As to the kind of experiment: IEDB peptide-MHC binding, purified MHC/competitive/fluorescence; filed as Kd, often an IC50 or EC50 that approximates it; ≥ and ≤ were set here for values at or beyond the usual limits of such assays. The note with it: source organism: Yersinia pestis Nepal516.
The target in a further experiment is HLA-B*46:01. As to the kind of experiment: IEDB peptide-MHC binding, purified MHC/direct/fluorescence; filed as Kd, often an IC50 or EC50 that approximates it; ≥ and ≤ were set here for values at or beyond the usual limits of such assays.
In a further experiment the target is HLA-A*02:16. Described as above. The note with it: source organism: Yersinia pestis CA88-4125.
Experiment [1] deals with HLA-A*01:01. The experiment is described as above.
The next experiment has as its target HLA-A*02:06. Described as above. The settings on record: source organism: Yersinia pestis CA88-4125.
In the next experiment the target is HLA-B*15:01. The description is as above.
For experiment [2], the target named is HLA-A*02:01. The experiment is described as above.
In experiment [3] the target is HLA-A*24:02. The experiment is described as above. The note with it: source organism: Yersinia pestis.
The next experiment concerns the target HLA-B*40:01. The experiment is described as above.
The target in experiment [4] is HLA-A*31:01. The description is as above.
The target of another experiment is HLA-A*02:11. The experiment is described as above. The settings on record: source organism: Yersinia pestis CA88-4125.
The target of experiment [5] is HLA-B*07:02. The experiment is described as above.
The target in the next experiment is HLA-B*44:02. The description is as above. The note with it: source organism: Yersinia pestis.
Another experiment concerns the target HLA-A*02:19. The experiment is described as above. The settings on record: source organism: Yersinia pestis CA88-4125.
The next experiment deals with HLA-A*69:01. The description is as above. The settings on record: source organism: Yersinia pestis.
Another experiment deals with HLA-B*27:05. The experiment is described as above.
Experiment [6] addresses HLA-B*18:01. The experiment is described as above.
The target of experiment [7] is HLA-A*03:01. The description is as above.
For the next experiment, the target named is HLA-A*02:12. The description is as above. The note with it: source organism: Yersinia pestis CA88-4125.
Experiment [8] concerns the target HLA-B*58:01. The experiment is described as above.
The target in experiment [9] is HLA-A*11:01. The experiment is described as above.
For the next experiment, the target named is HLA-B*44:03. As to the kind of experiment: IEDB peptide-MHC binding, purified MHC/competitive/fluorescence; ≥ and ≤ were set here for values at or beyond the usual limits of such assays. The note with it: source organism: Homo sapiens.
Experiment [10] has as its target HLA-A*01:01. Described as above. The settings on record: source organism: Homo sapiens.
The target in experiment [11] is HLA-A*02:01. The experiment is described as above. The note with it: source organism: Homo sapiens.
Experiment [12] addresses HLA-A*24:02. Described as above. The note with it: source organism: Homo sapiens.
Experiment [13] deals with HLA-A*31:01. Described as above. The settings on record: source organism: Homo sapiens.
The target of experiment [14] is HLA-B*07:02. The description is as above. The note with it: source organism: Homo sapiens.
For another experiment, the target named is HLA-B*40:02. The experiment is described as above. The note with it: source organism: Homo sapiens.
In the next experiment the target is HLA-B*53:01. Described as above. The settings on record: source organism: Homo sapiens.
The next experiment concerns the target HLA-B*37:01. The description is as above. The note with it: source organism: Homo sapiens.
Experiment [15] concerns the target HLA-B*18:01. Described as above. The settings on record: source organism: Homo sapiens.
In the next experiment the target is HLA-B*14:02. The description is as above. The note with it: source organism: Homo sapiens.
For another experiment, the target named is HLA-B*08:01. The description is as above. The settings on record: source organism: Homo sapiens.
In experiment [16] the target is HLA-A*68:02. The experiment is described as above. The settings on record: source organism: Homo sapiens.
Experiment [17] addresses HLA-A*03:01. The experiment is described as above. The settings on record: source organism: Homo sapiens.
The next experiment has as its target HLA-B*51:01. Described as above. The note with it: source organism: Homo sapiens.
For another experiment, the target named is HLA-B*35:01. The description is as above. The settings on record: source organism: Homo sapiens.
The target in experiment [18] is HLA-B*58:01. The description is as above. The settings on record: source organism: Homo sapiens.
In a further experiment the target is HLA-A*25:01. Described as above. The settings on record: source organism: Homo sapiens.
Another experiment concerns the target HLA-A*29:02. Described as above. The settings on record: source organism: Homo sapiens.
Experiment [19] has as its target HLA-A*11:01. The description is as above. The settings on record: source organism: Homo sapiens.
The next experiment has as its target HLA-B*15:17. The experiment can be described thus: IEDB peptide-MHC binding, purified MHC/competitive/fluorescence; filed as Kd, often an IC50 or EC50 that approximates it; ≥ and ≤ were set here for values at or beyond the usual limits of such assays. The note with it: source organism: Listeria monocytogenes serotype 4b str. CLIP 80459.
A further experiment addresses HLA-B*48:01. The experiment can be described thus: IEDB peptide-MHC binding, purified MHC/direct/fluorescence; filed as Kd, often an IC50 or EC50 that approximates it; ≥ and ≤ were set here for values at or beyond the usual limits of such assays. The settings on record: source organism: Listeria monocytogenes.
In the next experiment the target is HLA-B*08:03. The experiment is described as above. The note with it: source organism: Listeria monocytogenes serotype 4b str. H7858.
The target in the next experiment is HLA-B*57:01. The description is as above. The settings on record: source organism: Listeria monocytogenes.
Experiment [20] deals with HLA-A*68:02. Described as above. The settings on record: source organism: Listeria monocytogenes.
The mark [21] stands for this setting: source organism: Yersinia pestis.
The mark [22] stands for this setting: source organism: Listeria monocytogenes.

Broadly, the Kd is the constant that tells how readily two partners part at equilibrium. A lower Kd goes with tighter binding. On to AMQDPNPEV, for which the dissociation constant Kd with HLA-A*02:50 is 1.1 nM; with HLA-B*46:01 (setting [21]), ≥ 20 µM; with HLA-A*02:16, ≤ 1 nM; with HLA-A*01:01 [1] (setting [21]) it was ≥ 20 µM; in the experiment with HLA-A*02:06, 40 nM; in the experiment with HLA-B*15:01 (setting [21]) it was 319 nM. Moreover, the Kd in the experiment with HLA-A*02:01 [2] (setting [21]) is 189 nM; with HLA-A*24:02 [3], ≥ 20 µM; with HLA-B*40:01 (setting [21]), ≥ 20 µM; in the experiment with HLA-A*31:01 [4] (setting [21]) it was ≥ 20 µM; with HLA-A*02:11, 5 nM; with HLA-B*07:02 [5] (setting [21]) it was ≥ 20 µM. Further, the dissociation constant Kd was ≥ 20 µM with HLA-B*44:02; 42 nM in the experiment with HLA-A*02:19; 5.29 µM in the experiment with HLA-A*69:01; ≥ 20 µM with HLA-B*27:05 (setting [21]); ≥ 20 µM with HLA-B*18:01 [6] (setting [21]); ≥ 20 µM with HLA-A*03:01 [7] (setting [21]). Also, the Kd in the experiment with HLA-A*02:12 is 6 nM; with HLA-B*58:01 [8] (setting [21]), ≥ 20 µM; with HLA-A*11:01 [9] (setting [21]) it was ≥ 20 µM.

By IC50 is commonly meant the concentration at which inhibition is half-maximal. The low end stands for greater potency in that assay, the high end for weaker potency in that assay. For MVRVLTVIKEY, the IC50 with HLA-B*44:03, with HLA-A*01:01 [10], with HLA-A*02:01 [11], in the experiment with HLA-A*24:02 [12], with HLA-A*31:01 [13] and with HLA-B*07:02 [14] was ≥ 20 µM throughout. Also, the concentration for half-maximal inhibition (IC50) was ≥ 20 µM in the experiment with HLA-B*40:02; ≥ 20 µM with HLA-B*53:01; ≥ 20 µM in the experiment with HLA-B*37:01; 2770 nM with HLA-B*18:01 [15]; ≥ 20 µM with HLA-B*14:02; ≥ 20 µM with HLA-B*08:01. Moreover, the 50% inhibitory concentration (IC50) was ≥ 20 µM in the experiment with HLA-A*68:02 [16]; ≥ 20 µM in the experiment with HLA-A*03:01 [17]; ≥ 20 µM with HLA-B*51:01; 20.5 nM with HLA-B*35:01; ≥ 20 µM with HLA-B*58:01 [18]; 1290 nM in the experiment with HLA-A*25:01. Further, the IC50 with HLA-A*29:02 turned out to be 5.3 nM; with HLA-A*11:01 [19], 833 nM.

Take EIEIEKNKK: the Kd with HLA-B*15:17 is ≥ 20 µM; with HLA-B*46:01 (setting [22]), ≥ 20 µM; with HLA-A*01:01 [1] (setting [22]), ≥ 20 µM; with HLA-B*15:01 (setting [22]) it was ≥ 20000 nM; in the experiment with HLA-A*02:01 [2] (setting [22]) it was ≥ 20000 nM; with HLA-B*40:01 (setting [22]), ≥ 20 µM. The dissociation constant (Kd) with HLA-A*31:01 [4] (setting [22]), with HLA-B*07:02 [5] (setting [22]), in the experiment with HLA-B*48:01, in the experiment with HLA-B*08:03, with HLA-B*57:01 and with HLA-B*27:05 (setting [22]) was ≥ 20 µM each time. Also, the Kd with HLA-B*18:01 [6] (setting [22]), with HLA-A*68:02 [20], with HLA-A*03:01 [7] (setting [22]), with HLA-B*58:01 [8] (setting [22]) and with HLA-A*11:01 [9] (setting [22]) was ≥ 20 µM throughout.
